According to patent US20130230533A1 (Regeneron, published 2013):

T1: human CD48 (on primary human peripheral blood mononuclear cells) (human, UniProt P09326 27-220)
T1 sequence: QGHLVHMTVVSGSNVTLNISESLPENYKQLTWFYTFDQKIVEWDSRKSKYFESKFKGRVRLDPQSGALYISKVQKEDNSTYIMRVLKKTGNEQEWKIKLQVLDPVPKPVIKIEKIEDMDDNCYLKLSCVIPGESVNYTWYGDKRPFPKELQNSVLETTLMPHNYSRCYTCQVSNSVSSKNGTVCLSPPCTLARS

T2: biotinylated dimeric human CD48 protein expressed as a fusion with mouse IgG2a Fc (human, biotinylated)
T2 construct: also called bio-hCD48-mFc; Dimeric human CD48-mFc
T2 chain: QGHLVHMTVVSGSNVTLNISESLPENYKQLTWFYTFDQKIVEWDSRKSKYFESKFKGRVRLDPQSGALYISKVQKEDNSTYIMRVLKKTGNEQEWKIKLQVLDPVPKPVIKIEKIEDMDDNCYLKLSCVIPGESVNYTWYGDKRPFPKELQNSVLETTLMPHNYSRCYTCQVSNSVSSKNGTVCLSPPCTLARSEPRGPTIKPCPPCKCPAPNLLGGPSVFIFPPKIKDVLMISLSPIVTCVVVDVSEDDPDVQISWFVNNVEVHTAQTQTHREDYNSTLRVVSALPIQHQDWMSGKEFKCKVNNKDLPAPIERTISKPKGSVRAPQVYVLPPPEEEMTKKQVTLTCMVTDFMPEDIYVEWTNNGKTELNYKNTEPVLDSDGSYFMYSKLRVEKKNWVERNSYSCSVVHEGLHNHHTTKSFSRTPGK

T3: monomeric monkey CD48 expressed with a tag consisting of 2 myc and one 6-His epitopes (monkey)
T3 construct: also called mfCD48-mmH; Monomeric monkey CD48-mmH
T3 chain: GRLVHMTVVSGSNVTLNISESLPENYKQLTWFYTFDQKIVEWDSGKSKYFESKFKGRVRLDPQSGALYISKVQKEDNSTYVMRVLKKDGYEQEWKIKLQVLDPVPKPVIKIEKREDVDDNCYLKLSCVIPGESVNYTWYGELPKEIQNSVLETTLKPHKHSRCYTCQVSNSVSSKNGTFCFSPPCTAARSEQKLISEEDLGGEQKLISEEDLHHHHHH

B1: H4H1789Pa (antibody, V domains shown)
VH: EVQLLESGGGLVHPGGSLRLSCAASGFTFGGYAMSWVRQAPGKGLEWVSLISGSGGSTYYADSVKGRFTIFRDNSKNTLYLQMISLRAEDSAVYYCAKYSNYDYFDPWGQGTLVTVSS
VL: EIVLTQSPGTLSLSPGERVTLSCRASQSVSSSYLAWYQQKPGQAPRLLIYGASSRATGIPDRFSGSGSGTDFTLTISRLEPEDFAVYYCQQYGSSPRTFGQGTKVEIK
notes: Human IgG4 Fc (H4H)
B2: H4H1772P (antibody, human IgG4, V domains shown)
VH: EVQLVESGGGLVQPGGSLRLSCAASGFTFSSYWMSWVRQAPGKGLEWVANIMRDGSEKYYVDSVKGRFTISRDNAKNSLYLQMNSLRGEDTAVYYCARERGFYTNYGNWFDPWGQGTLVTVSS
VL: DIVMTQSPLSLTVTPGESASISCRSSQSLLHSYGYNSLDWYLQKPGQSPQFLIYLVSNRASGVPDRFSGSGSGTDFTLKISRVEAEDVGVYYCMQVLQTPYTFGQGTKLEIK
notes: Human IgG4 Fc (H4H)
B3: H4H1775P (antibody, human IgG4, V domains shown)
VH: QVQLVESGGGVVQPGRSLRLSCAASGFTFSNYGMHWVRQAPGKGLEWVAVIWYDESGKHYADSVKGRFTISRDNSQNTLYLQMTSLRAEDTAVYYCARDRWTYSHYFEYWGQGTLVTVSS
VL: DIQMTQSPSSVSASVGDRVTITCRASQDISSWVAWYQQKPGKAPKLLIYAASSLQSGVPSRFSGSGSGTDFTLTISSLQPEDFATYYCQQANSFPRTFGQGTKVEIK
notes: Human IgG4 Fc (H4H)

Columns and labels:
[1] = target: T1, human CD48 (on primary human peripheral …); assay: cell-based or functional assay
[2] = target: T2, biotinylated dimeric human CD48 protein …; assay: competition ELISA; blocks bio-hCD48-mFc binding to coated h2B4-mFc
Procedure: (§1) The ability of human anti-CD48 monoclonal antibodies to block human CD48 and monkey CD48 binding to the human cognate ligand, human 2B4, was measured using a competition sandwich ELISA (Table 8). Constant amounts of biotinylated dimeric human CD48 protein expressed as a fusion with mouse IgG2a Fc (“bio-hCD48-mFc” [SEQ ID NO: 387]) or monomeric monkey CD48 expressed with a tag consisting of 2 myc and one 6-His epitopes (“mfCD48-mmH” [SEQ ID NO: 386]) were separately titrated with varying amounts of antibodies. These antibody-protein complexes were incubated (1 hr, 25° C.) before being transferred to microtiter plates coated with a dimeric construct expressing the human 2B4 receptor fused to a either human IgG1 (h2B4-hFc [R&D Systems, Inc., Minneapolis, Minn., Cat. No. 1039-2B]) or mouse IgG2a Fc (h2B4-mFc [SEQ ID NO: 389). After a 1 hr at 25° C. the wells were washed and bound human CD48 was detected with streptavidin conjugated with horse-radish peroxidase (HRP), and monkey CD48 was detected with an HRP conjugated anti-myc polyclonal antibody. The ELISA was developed with a TMB solution to produce a colorimetric reaction and quenched with sulfuric acid before reading absorbance at 450 nm on a Victor X5 plate reader. Sigmoidal dose response curves were fit to the data using Prism™ software. […] (Tables 8 and 9, NB=no binding observed)

[3] = target: T1, human CD48 (on primary human peripheral …); assay: cell-based or functional assay; remark: listed apart in the source
[4] = target: T1, human CD48 (on primary human peripheral …); assay: cell-based or functional assay; remark: listed apart in the source
[5] = target: T1, human CD48 (on primary human peripheral …); assay: cell-based or functional assay; remark: listed apart in the source
[6] = target: T3, monomeric monkey CD48 expressed with a …; assay: competition ELISA; blocks mfCD48-mmH binding to coated h2B4-mFc
Procedure: as §1

Binder	IC50 [2]	Inhibition of IFN-gamma Release IC50; Donor 6 [3]	Inhibition of IFN-gamma Release IC50; Donor 7 [3]	Inhibition of IFN-gamma Release IC50; Donor 8 [4]	Inhibition of IFN-gamma Release IC50; Donor 9 [4]	Inhibition of IFN-gamma Release IC50; Donor 10 [4]	Inhibition of IFN-gamma Release IC50; Donor 11 [4]	% Blockade of IFNγ release, MLR; D1 [5]	% Blockade of IFNγ release, MLR; D2 [5]	% Blockade of IFNγ release, MLR; D3 [5]	% Blockade of IFNγ release, MLR; D4 [5]	% Blockade of IFNγ release, MLR; D5 [5]	% Blockade of IFNγ release, MLR; D6 [5]	% Blockade of IFNγ release, MLR; D7 [5]	% Blockade of IFNγ release, MLR; D8 [5]	% Blockade of IFNγ release, MLR; D9 [5]	IC50 [6]	also measured
B1	0.053 nM	1.2e-11 Molar	1.8e-11 Molar	3.7e-11 Molar	1.6e-11 Molar	1.3e-11 Molar	1.3e-11 Molar	65%	66%	88%	36%	89%	82%	75%	65%	66%	0.038 nM	IC50 of IFNγ release, MLR; D1 [1]: ~0.0014 nM; IC50 of IFNγ release, MLR; D2 [1]: ~0.0093 nM; IC50 of IFNγ release, MLR; D4 [1]: 0.23 nM; IC50 of IFNγ release, MLR; D5 [1]: ~0.09 nM; IC50 of IFNγ release, MLR; D6 [1]: 0.0028 nM; IC50 of IFNγ release, MLR; D8 [1]: 0.029 nM; IC50 of IFNγ release, MLR; D9 [1]: 0.18 nM; IC50 of IFNγ release, MLR; D10 [1]: ~0.05 nM; IC50 of IFNγ release, MLR; D11 [1]: ~0.092 nM; IC50 of IFNγ release, MLR; D12 [1]: ~0.3 nM; IC50 of IFNγ release, MLR; D13 [1]: ~0.096 nM; IC50 of IFNγ release, MLR; D14 [1]: 0.2 nM; IC50 of IFNγ release, MLR; D15 [1]: ~0.0027 nM; IC50 of IFNγ release, MLR; D16 [1]: ~0.012 nM
B2	0.014 nM	2e-12 Molar	2.2e-11 Molar	–	–	1.4e-12 Molar	8.6e-11 Molar	–	65%	62%	39%	62%	63%	58%	25%	59%	0.0044 nM	–
B3	0.044 nM	–	5.1e-12 Molar	3.1e-12 Molar	2.3e-12 Molar	2e-11 Molar	–	42%	77%	87%	37%	70%	72%	69%	22%	60%	0.043 nM	–
